From patent US6890516

Biological target: Drosophila nitric oxide synthase (DNOS) (Drosophila) (UniProt Q27571)
Assay: cell-based or functional assay

Sequence of Drosophila nitric oxide synthase (DNOS) (Drosophila) (Q27571 other isoform, or with tags, fused parts or gaps limits assumed): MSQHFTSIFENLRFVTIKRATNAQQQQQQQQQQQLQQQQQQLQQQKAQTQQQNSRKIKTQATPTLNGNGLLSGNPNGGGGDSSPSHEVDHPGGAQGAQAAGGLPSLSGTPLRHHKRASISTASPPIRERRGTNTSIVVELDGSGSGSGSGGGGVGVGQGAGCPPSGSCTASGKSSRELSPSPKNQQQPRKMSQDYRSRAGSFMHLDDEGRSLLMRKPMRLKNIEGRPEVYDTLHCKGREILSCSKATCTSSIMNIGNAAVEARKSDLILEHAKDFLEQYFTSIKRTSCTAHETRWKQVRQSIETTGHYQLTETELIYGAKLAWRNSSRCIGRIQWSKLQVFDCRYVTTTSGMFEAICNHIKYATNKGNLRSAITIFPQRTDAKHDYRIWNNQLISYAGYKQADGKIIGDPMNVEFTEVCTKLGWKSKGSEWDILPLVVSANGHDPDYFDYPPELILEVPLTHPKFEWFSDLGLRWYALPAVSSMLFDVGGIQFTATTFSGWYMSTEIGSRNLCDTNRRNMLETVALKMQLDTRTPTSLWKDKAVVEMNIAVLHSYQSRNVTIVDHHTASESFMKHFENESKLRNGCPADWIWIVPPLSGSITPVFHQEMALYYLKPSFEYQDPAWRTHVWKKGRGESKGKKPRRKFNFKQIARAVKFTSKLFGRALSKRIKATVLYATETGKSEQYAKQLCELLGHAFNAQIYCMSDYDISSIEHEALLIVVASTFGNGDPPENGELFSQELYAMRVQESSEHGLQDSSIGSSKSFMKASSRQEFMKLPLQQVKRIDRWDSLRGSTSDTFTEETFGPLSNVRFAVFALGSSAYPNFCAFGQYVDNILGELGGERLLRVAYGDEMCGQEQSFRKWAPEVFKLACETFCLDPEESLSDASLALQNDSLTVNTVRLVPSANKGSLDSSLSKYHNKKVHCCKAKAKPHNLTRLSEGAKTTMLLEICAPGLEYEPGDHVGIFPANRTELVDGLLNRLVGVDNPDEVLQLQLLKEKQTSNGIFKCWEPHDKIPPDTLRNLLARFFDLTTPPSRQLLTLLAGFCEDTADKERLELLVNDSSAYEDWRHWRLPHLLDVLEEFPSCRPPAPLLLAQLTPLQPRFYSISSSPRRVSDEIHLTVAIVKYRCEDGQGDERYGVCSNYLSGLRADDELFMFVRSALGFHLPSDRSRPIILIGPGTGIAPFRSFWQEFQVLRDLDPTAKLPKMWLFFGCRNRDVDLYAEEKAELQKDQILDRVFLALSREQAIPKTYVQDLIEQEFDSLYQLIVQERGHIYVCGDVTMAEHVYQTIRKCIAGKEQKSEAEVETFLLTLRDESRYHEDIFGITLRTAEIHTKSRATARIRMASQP

NO synthase activity (L-arginine to L-citrulline conversion, 293 cell extracts, with exogenous Ca2+ and calmodulin): 0.128 pmol/mg/min | NO synthase activity with 500 µM W5, a calmodulin antagonist: 0.0222 pmol/mg/min | NO synthase activity with 500 µM W5, a calmodulin antagonist (% of activity): 18 | NO synthase activity with 1 mM EGTA, without exogenous Ca2+ or calmodulin: 90 % reduction
Substance: calmodulin
